Experimental data from patent publication US20250163183.

Target: LP3, LP9, LP11, and LP18

B1: human activated protein C (APC) (protein)
chain: ANSFLEELRHSSLERECIEEICDFEEAKEIFQNVDDTLAFWSKHVDGDQCLVLPLEHPCASLCCGHGTCIDGIGSFSCDCRSGWEGRFCQREVSFLNCSLDNGGCTHYCLEEVGWRRCSCAPGYKLGDDLLQCHPAVKFPCGRPWKRMEKKRSHLLIDGKMTRRGDSPWQVVLLDSKKKLACGAVLIHPSWVLTAAHCMDESKKLLVRLGEYDLRRWEKWELDLDIKEVFVHPNYSKSTTDNDIALLHLAQPATLSQTIVPICLPDSGLAERELNQAGQETLVTGWGYHSSREKEAKRNRTFVLNFIKIPVVPHNECSEVMSNMVSENMLCAGILGDRQDACEGDSGGPMVASFHGTWFLVGLVSWGEGCGLLHNYGVYTKVSRYLDWIHGHIRDKEAPQKSWAP
- APC-mediated SEAP-PAR1 cleavage at 0.7-6 nM nanobody: reduced PAR1 cleavage down to 73-82% of controls
